For assay [1], the target named is T1, human IGF-1R(1-903)-Fc (human, UniProt P08069 31-933).
T1 construct: Made by Biogen Idec; also called hIGF-1R-Fc; IGF-1R-Fc
The experiment in a line: blocking ELISA, competitor 320 nM IGF-1. Background: ELISA stands for enzyme-linked immunosorbent assay.

The target of assay [2] is T1, human IGF-1R(1-903)-Fc. The experiment in a line: blocking ELISA, competitor 640 nM IGF-2.
The next assay concerns the target T2, hIGF-1R-Fc mutant SD203 (human, UniProt P08069 31-933).
T2 construct: build as m36 with the substitution; also called N254A
The experiment in a line: KD grade of mutant hIGF-1R-Fc; S = binding to antibody was ablated by mutation.

The target in another assay is T3, hIGF-1R-Fc mutant SD207 (human, UniProt P08069 31-933).
T3 construct: build as m36 with the substitution; also called G265Y
T3 sequence (P08069 other isoform, or with tags, fused parts or gaps mutant limits assumed): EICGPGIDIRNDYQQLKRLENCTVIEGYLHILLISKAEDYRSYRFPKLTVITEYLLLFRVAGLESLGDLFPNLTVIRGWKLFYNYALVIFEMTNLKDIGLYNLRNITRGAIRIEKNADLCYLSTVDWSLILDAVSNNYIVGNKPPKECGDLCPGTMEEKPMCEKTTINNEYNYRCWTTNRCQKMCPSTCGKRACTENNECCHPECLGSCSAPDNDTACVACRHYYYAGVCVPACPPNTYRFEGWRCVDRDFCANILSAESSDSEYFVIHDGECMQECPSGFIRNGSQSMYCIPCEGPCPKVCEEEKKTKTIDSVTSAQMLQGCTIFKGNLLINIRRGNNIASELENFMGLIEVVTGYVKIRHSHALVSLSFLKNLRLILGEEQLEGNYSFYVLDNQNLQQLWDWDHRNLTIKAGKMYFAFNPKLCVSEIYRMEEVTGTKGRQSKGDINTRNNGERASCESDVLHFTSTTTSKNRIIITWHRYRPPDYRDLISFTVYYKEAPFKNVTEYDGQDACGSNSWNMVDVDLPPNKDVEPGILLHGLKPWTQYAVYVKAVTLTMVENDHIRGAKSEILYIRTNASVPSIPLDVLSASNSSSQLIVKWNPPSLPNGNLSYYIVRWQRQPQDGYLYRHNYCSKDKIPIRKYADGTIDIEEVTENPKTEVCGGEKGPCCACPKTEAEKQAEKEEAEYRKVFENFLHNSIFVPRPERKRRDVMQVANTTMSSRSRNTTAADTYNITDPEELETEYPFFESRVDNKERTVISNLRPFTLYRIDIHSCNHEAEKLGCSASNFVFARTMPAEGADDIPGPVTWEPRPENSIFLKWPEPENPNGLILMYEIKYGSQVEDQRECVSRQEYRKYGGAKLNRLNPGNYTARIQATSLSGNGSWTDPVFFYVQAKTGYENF
The description is as above.

T1 sequence (P08069 31-933): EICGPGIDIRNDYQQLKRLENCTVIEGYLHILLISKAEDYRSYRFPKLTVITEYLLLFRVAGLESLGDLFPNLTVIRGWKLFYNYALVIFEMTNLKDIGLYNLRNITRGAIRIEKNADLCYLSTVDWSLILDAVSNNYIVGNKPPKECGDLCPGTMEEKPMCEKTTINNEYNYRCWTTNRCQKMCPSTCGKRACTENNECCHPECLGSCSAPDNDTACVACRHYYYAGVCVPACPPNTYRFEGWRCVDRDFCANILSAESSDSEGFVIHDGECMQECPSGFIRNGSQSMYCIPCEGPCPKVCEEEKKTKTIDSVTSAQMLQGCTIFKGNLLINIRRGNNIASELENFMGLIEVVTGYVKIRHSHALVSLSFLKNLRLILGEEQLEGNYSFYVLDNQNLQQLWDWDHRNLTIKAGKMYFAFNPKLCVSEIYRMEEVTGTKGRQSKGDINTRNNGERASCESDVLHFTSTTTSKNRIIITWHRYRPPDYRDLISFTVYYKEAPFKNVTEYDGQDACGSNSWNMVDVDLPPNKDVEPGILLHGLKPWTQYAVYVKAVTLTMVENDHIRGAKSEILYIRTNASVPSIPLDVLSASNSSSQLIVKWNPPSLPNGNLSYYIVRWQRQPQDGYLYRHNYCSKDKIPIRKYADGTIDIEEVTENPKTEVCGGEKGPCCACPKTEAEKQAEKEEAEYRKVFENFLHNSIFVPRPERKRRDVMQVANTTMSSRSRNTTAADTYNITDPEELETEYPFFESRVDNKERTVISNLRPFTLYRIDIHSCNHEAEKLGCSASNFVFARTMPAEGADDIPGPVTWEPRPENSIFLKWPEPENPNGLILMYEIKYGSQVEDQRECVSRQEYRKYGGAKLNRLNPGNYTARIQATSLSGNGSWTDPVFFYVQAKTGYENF
T2 sequence (P08069 other isoform, or with tags, fused parts or gaps mutant limits assumed): as the sequence (P08069 31-933) above, with N254A counted along it

B1: P1E2 (chimeric antibody) (antibody, V domains shown)
VH: QVQLQQPGAELVKPGASVKLSCKASGYTFTSYWMHWVKQRPGQGLEWIGEINPTYGRSNYNEKFKSKATLTVDKSSSTAYMQLSSLTSEDSAVYYCARLVRLRYFDVWGAGTTVTVSS
VL: DIVMTQAAFSNPVTLGTSASISCRSSKSLLHSNGITYLYWYLQKPGQSPQLLIYQMSNLASGVPDRFSSSGSGTDFTLRISRVEAEDVGVYYCAQNLELPYTFGGGTKLEIK
For B1, the “% IGF-1 inhibition upon antibody saturation” value in the assay with human IGF-1R(1-903)-Fc [1] was 38%. Moreover, in the assay with human IGF-1R(1-903)-Fc [2], the “% IGF-2 inhibition upon antibody saturation” value was roughly 50%. The binding result with hIGF-1R-Fc mutant SD203 and with hIGF-1R-Fc mutant SD207 was “no binding” in each case.

Source of the values: patent US20090092614A1 (Biogen, published 2009).
